In test [1] the target is TNF-α receptors on U937 cells. Kind of test: 125I-TNF-α binding to U937 cells, no antibody.
Test [2] deals with IL-8 receptors on human neutrophils. The experiment in a line: 125I-IL-8 binding to human neutrophils, no antibody.
Test [3] deals with EGFR expressed on A431 cells or SW948 cells (human) (UniProt P00533). Kind of test: inhibition of [125I]EGF binding to A431 cells (receptor binding assay, % specific bound); blocked ligand: EGF.

Regarding “human tumor necrosis factor-α (from UniProt P01375 77-233) (ligand)”, the background binding in the absence of antibody in test [1] worked out at 4010 cpm.
On to “human IL-8 (from UniProt P10145 28-99) (ligand)”, for which, in test [2], the background binding in the absence of antibody turned out to be 2660 cpm.
“mouse anti-human EGFR antibody 225 (Calbiochem)”: the IC50 (read off the curve) in test [3] was found to be 20 nM.

(Values after patent US20080098490A1.)
